Results published in the nanobody polyreactivity screen of Harvey et al. (2022).

Test: yeast display, Sf9 membrane polyspecificity reagent, FACS + sequencing; frameworks hold sequencing errors
Method in brief: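 In a synthetic yeast display library (Saccharomyces cerevisiae BJ5465), nanobody expression was induced with galactose for 36–48 hours. FACS gates were set low and high (top ~1%) using anti-HA fluorescence for expression and streptavidin fluorescence for binding of the Sf9 membrane reagent. Each polyreactivity label is drawn from the gate of origin.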

Sequence	polyreactivity (PSR sort gate)
QVQLVESGGGLVQAGGSLRLSCAASGFIFRYYAMGWYRQAPGKEREMVAAISRSGGSTYYADSVKGRFTISRDNANNTVYLQMKSLKPEDTAVYYCAALQSRSWYQFNYWGQGTQVTVSS	high polyreactivity
QVQLVESGGGLVQAGGSLRLSCAASGNIFRKNAMGWYRQAPGKERELVAAITSVGSTNYADSVKGRFTISRDNAKNTVYLQMTSLKPEDTAVYYCDARSQIYYRYRSYGYWGQGTQVTVSS	high polyreactivity
QVQLVESGGGLVQAGGRLRFSCAASGFIFRYYAMGCYRQAPGKERELVAAIDYSGGSTNYADSVKGRFTISRDNAKNTVYLQMNSLKPEETAVYYCNAEYTWHRGYDYWGQGTLVTVSS	low polyreactivity
QVQLVESGGGLVQAGGSLRLSCAASGFTFYYYAMGGYSQAPGKERELVAAISSTGGSTYYADSVKGRFTISRDNAKNTVYLQMNSLKPEDTAVYYCNAAGYRYPGDYDFWGQGTQVTVSS	high polyreactivity
QVQLVESGGGLVQAGGSLRLSCAASGRIFAYYAMGWYRQAPGKERELVAAITTNGGGTYYADSVKGRFTISRDNAKNTVYLQMNSLKPEDTAVYYCNAVKQRSSIFDYWGQGTQVTVSS	low polyreactivity
QVQLVESGGGLVQAGGSLRFSCAASGFTFSVYAMGWYRQAPGTEMELVAAIHWSGGSTYYADSVKGRFTISRDNAKNTVYLQMNSLKPEDTAVYYCNTLYWYTRHVVDYWGQGTQVTVSS	high polyreactivity
QDQLVESGGGLVQAGGSLRLSCAASGSTFPLYAMGSYREAPGKERELVADITVSGGSTYYADSVKGRFTISRDNAKNTVYLQMNSLNPEDTAVYYCNADDRSPFPDYWWYPYDYDYGGQGTQVTVSS	low polyreactivity
QVQLVESGGGLVQAGGSLRLSCAASGSIFQYTMGWYRQAPVKEMELVAAITRSGSSTYYADSVKGRFTISRDNAKNTVYLQMNSLKPEDTAVYYCAHNIRRVLGYGSWGQGTQVTVSS	high polyreactivity
QVQLVESGGGLVQAGGSLRLSCAASGSTFRYYAMGWYRQAPGKERELVAVISTSGNTYYADSVKGRFTISRDNAKNTVYLQMNSLKPEDTAVYYCAARGVGGQISQEYDYWGQGTQVTVSS	low polyreactivity
QVQLVESGGGLVQAGGSLRLSCAASGLIFTYYAMGWYRQAPGKEREMVAAISSSGVNTYYADSVKGRFTISRDNAKNTVYLQMNSLKPEYTAVYYCAAELQPSPVGGIIQYGFDYWGQGTQVTVSS	low polyreactivity
QVQHVESAGGLVQAGGSLRLICAASGSIFFHYGMGWYRQAPGKERELVADIRSGGSTYYADSVKGRFTSSRDNAKNTVYLQMNSLKPDDSAVYYCAAVLALFGVTHVDYWGQGTQVSVSS	low polyreactivity
QVQLVESGGGLVQAGGSLRLSCAASGSTFSYYAMGWYRQAPGKERELVAAISGRGGSTYYADSVKGRFTISRDNAKNTVYLQMNSLKPEDTAVYYCAKGRLYTAYGLYSWGQGTQVTVSS	high polyreactivity
QVQLVESGGGLVQAGGSLRLSCAASGFIFTWYAMGWYRQAPGKEREVVAGISRSGGRTYYADSVKGRFTISRDNAKNTVYLQMNSLKPEDTAVYYCNAVLVGYRPYREFDHWGQGTQVTVSS	high polyreactivity
QVQLVESGGGLVQAGGSLRLSCAASGRIFNQYGMGWYRQAPGQEMELVAAIRSGDSTNYADSVKGRFTISRDNAKNTVYLQMNSLKPEVTAVYYCARDRPGDYAGYDYWGQGTEVTVSS	low polyreactivity
QVQLVESGGGLVQAGGSLRLSCAASGSIFPYYAMGWYRPAPGKERELVAGITSGTRTNYADSVKGRFTISRDNAKNTVYLQMNSLKPEDTAVYYCAAYYRAYRRDYYWGQGTQVTVSS	high polyreactivity
QVQLVESGGGLVQAGGSLRLSCAASGRIFYPYAMGWYRQAPGKERELVAAISARGGSTYYADSVKGRFTISRDNAKNTVYLQMNSLKPEDTAVYYCATYTYRGVAEMDYWGQGTQVTVSS	high polyreactivity
QVQLVESGGGLVQAGGSLRLSCAASGSTFDYYAMGWNRQAPGKERDLVAASTSGSSTYYADSVKGRITISRDNAQNTVYLEMNSLKPEDTAVYYCAARSVYGSSFLSYGYWGQGTQLTVSS	high polyreactivity
QVQLVESGAGLVQAGGSLRLSCAASGYIFRQYAMGRYRQAPGTEREFVAAISQTGGSTYYADSVKRRFTLSRDNAKNTVYFQMNSLKPVDTAVYYCAARYRGQRYRKLDYWGQGTQVTVSS	high polyreactivity
QVQLVESGGGLVQAGGSLRISCAASGRIFAQYVMGWYRQAPGKERELVAAISSGGSTYYADSVKGRFTISRDNAKNTVYLQMNSLKPEDTAVYYCAARSRAHRVGRQPFDYWGQGTQVTVSS	high polyreactivity
QVQLVESGGGLVQAGGSLRLSCAASGSTFWYYAMGWYRQAPGKERELVAAISVRGGSTYYADSVKGRFTISRDNAKNTVYLQMNSLKPEETGVYYCAAVSYKSHRYDYWGQGTQVTVSS	high polyreactivity
QVQLVESGGGLVQAGGSLRLSCAASGLTISYYAMGWYRQAPGKERELVAAISTDSSTNYADSVKGRFTISRDNAKNTVYLQMISLKPEDTAVYYCAAVVVYGPIHGYWGQGTQVTVSS	low polyreactivity
QVQLVESGGALVQAGGSLRLSCAASGRIFASNGMGWYRQAPGKEREFVAAINRSGGSTYYADSVKGRFTISRDNAKNTVYLQMNSLKPEDTAVYYCNKDYLYSYLWGWKVYSYDYWGQGTQVTVSS	low polyreactivity

Sequence	polyreactivity (PSR sort gate)
QVQLVESGGGLVQAGGSLRLSCAASGRTFVKNAMGWYRQAPGKERELVAVISQSGGSTYYADSVKGRFTISRDNAKNTVYLQMNCLKPEDTAVYYCAARYSYYRQGDSWYNYNYWGQGTQVTVSS	high polyreactivity
QVQLVESGGGLVQAGGSLRLSCAASGRTFAPYVMGWYRQAPGKERELVAAITLSGDSTDYADSVKGRFTISRDNAKNTVYLQMNSLKPEDTAVYYCNVEYLSYTSYFHYYEYDYWGQGSQVTVSS	low polyreactivity
QVQLVESGGGLVQEGGSLRLSCAASGLIFNRYDMGWYRQAPGKVTELVAAITSRGGRTYYADSVKGRFTISLDNAKTTVYLQMNSLKPEDTAVYYCNRTPTGSSLYGMDYWGQGTQVTVSS	high polyreactivity
QVQLVESGGPIVQAGGSLRISCAASGRTYAYKTMGWSRQAPGKERELVAGINSSGGSTYYADSVKGRFTISRDNAKNTVYLQMNSLKPEDTAVYDCAADNSPRPYDSWGQGTQVTVSS	high polyreactivity
QVHLVESGGRLVQAGGSLRLSCAASGSTFGYYAMVWYRHAPGKDRELVAAITSGASTYYADSVKGRFTISRDNAKKTVYLQMNSLKPEDTAVYYCAARRWRKYYSGYNYWGQGTQVTVSA	high polyreactivity
QFQLVESGGGLVQAGGSLRLSCAASGFIFTNYAMGWYRQAPGKEWELVAAINRSGGRTYYADSVKGRFTISRDNAKNTVYLQMNSLKPEDNAVYYCAAKGVSYRPAYDYWGQGTQVTVSS	high polyreactivity
QVQLVESGGGLVQAGGSLRLSCAASGHIFFYYTMGWYRQAPGKERELVAGIPIGGSTNYADSVKGRFTISRDNAKNTVYLQMNSLKPVDTAVYYFNVVKYVYIYSFWEYYYWGQGTQVTVSS	low polyreactivity
QEQLQESGGGQVQAGGSLLLSCAASGNIIRYYYMGWYRQAPGKERELVAAITYGTSTNYADSVKGRFTISRDNATNTEFLQMNSLKPEDTAVYYCAVDVNYGDPIDNWGQGTQVTVSS	high polyreactivity
QVQLVESGGGLVQAGGSLRLSCAASGRIFVVNAMGWYRQAPGNERELVAAISSSSDSTYYADSVKGRCTISRDNAKNTVYLQMNSLKPEDTAVYYCAADYHYDGYWIYDYWGQGTQVTVSS	high polyreactivity
QVQLVESGGGLVQAGGSLRLSCAASGRIFVYYAMGGYRQAPGKERELVATISTGGSTYYADSVKGRFTISRDNAKNTVYLQMNSLKPEDTAVYYCASDNVNLYLAYYYKGDYWGQGTQVTVSS	low polyreactivity
QVQLVESGGGLVQAGGSLRLSCAASGYTFRHYAMGWYRQEPGKERELVAAITFNGGTTYYADSVKGRFTISRDNAKNTVYLQMNSLKPEDTAVYYCNALPYSRGRWRPLSAVDYWGQGTQVTVSS	high polyreactivity
QVQLVESGGGLVQAGGSLRLSCAASGSIIGRNAMGWYRQAPGQEREMVAAISTRGGRTYYADSVKGRFTISRDNAKNNDYLQMNSLKPEDTAVYYCAAVGPYRWYDYWGQGTQVTVSS	high polyreactivity
QVQLVESGGGLVQAGGSLRIICAASGFIFKYYAMGWYRQAPGKERELVAAISSGGSTKYADSVKGRFTISRDNAKNTVYLQMNSLIPEDTAVYYCNADWYWKYDYWGQGTQVTVSS	high polyreactivity
QVQLVESGGGLVQAGGSLRLSCAASGRIFVWYDMGWYRQAPGKERELVAAISWGGGTNYADSVKGRFTISRDNAKNTVYLQMNSLKPEDTAVYYCAAAPSYYYFVRYVPSDIEGYWGQGTQVTVSS	low polyreactivity
QLQLVESGGGLVQAGGSLRLSCAASGRTFSYNTMGWYRHAPGKERELVAAISWSGGSTYYADSVKGRFTISRDNAKNTVYLQMNSLKPEDSAVYYCNARSSGKGRSNAYYKGHGYWGQGTQVTVSS	high polyreactivity
QVLLVESGGGLVQAGGSLRLSCAASGITFAYYVMGWYRQAPGKERELVAAINWSGGSTYYADSVKGRFTISRDNAKNTVYLQMNSLKPEDPAVYYCAADWSTWYGEKFYWGQGTQVTVSS	high polyreactivity
QVQLVESGGGLVQAGGSLRLSCAASGYTFKTNDMGRYRQAPGKEREFVAAIDSGGNTYYADSVKGRFTISRDNAKITVYLQMNSLIPEDTAVYYCGAYRDYQYDYWGQGTQVTVSS	low polyreactivity
QVQLVESGGGLVQAGGSLRLSCAASGLIFSRYAMGWYRQAPGKERELVAAITWRGGSTYYADSVKGRFTISRDNAKNTVYLQMNSLKPEDTAVYYCNADGLWFQGYNSWGQGTQVTVSS	low polyreactivity
QVQLVESGGGLVQAGGSLRLSCAASGSIFSYYAMGWYRQAPGKERELVAVISSSGGRTYYADSVKGRFTISRDNAKNTVYLQMNSLKPEDTAVYYCARERWWGGSDYWGQGTQVTVSS	high polyreactivity
QVQLVESGGGLVQAGGSIRLSCDASGNTFCTYAMGWYRQAPGKERELVATSAKRAGSTYYADSVKGRFTISRDNAKNTVFLQLKCLKPEDTAFYDCARDAYSVYYYVFLHWEYDYWGQVTQVTVSS	high polyreactivity
QVQLVESGGGLVQAGGSLRLSCAASGSTFGINAMGWYRQAPGKERELVAAISRRGGSTYYADSVKGRFTISRDNAKNSVYLQMNSLKPEDTAVYYCAARYRNHQYDYWGQGTQVTVSS	high polyreactivity
